Broadly, the Kd is the constant that tells how readily two partners part at equilibrium. Higher therefore signals a looser complex.

This is an account of results in publication PMC9648850.

The test system of the series is RtrC (Caulobacter crescentus (NA1000?)). Nature of the series: EMSA. The conditions noted are these: 200 mM NaCl, 50 ng/ul poly(dI-dC), EMSA: 32.5 mM Tris pH 8 (at 4 C), 200 mM NaCl (chases: 30 mM Tris, 150 mM NaCl), 1 mM EDTA, 30% glycerol, 1 mM DTT, 10 ug/ml BSA, 20 C …. For orientation: Mobility shift assays separate free from complexed probe on a gel.

In the case of hfiA promoter probe, labeled, the Kd was determined as 45 nM.
